Results: US20250051407A1, “De novo designed sequence-specific DNA binding proteins” (University of Washington, priority 2023, published 2025)

How the values were obtained:
13 unique dsDNA targets = assay: All-by-all yeast surface display screen of DBP design hits; format: binding
Summary of the method: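 EBY100 yeast displaying designs were induced 16–24 h at 30°C, then labelled with biotinylated dsDNA either with avidity (SAPE premixed at one-quarter of target concentration) or without (target, then SAPE/FITC). Competition ran without avidity at 1 μM biotinylated duplex plus 8 μM unlabelled competitor. Flow cytometry read-out is the SAPE/FITC ratio over gated expressing cells.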

[1] = tested on: biotinylated target dsDNA with non-biotinylated competitor dsDNA; assay: Yeast display competition assay with base-substituted competitor dsDNA; format: binding; settings: all possible base mutations at each position of the competitor oligo

B1: DBP48: designed DNA-binding protein, SEQ ID NO: 22, DNA target D (protein)
chain: MTPEEIAEAKRIGKEVKERRKELGLTQRELAEKLGVSRSTVSDIENGRRLPSEELLKKIKEILGV
Number of the 13 tested DNA target sequences preferentially bound (13 unique dsDNA targets; 1 μM dsDNA with avidity, including designed target sequence): less than 3
Binding specificity versus design models (13 unique dsDNA targets; all-by-all screen with Rosetta-predicted motifs): bound with specificity closely consistent with the design models
Binding to initial design target (13 unique dsDNA targets; yeast surface display, 1 μM dsDNA with avidity): bound weakly
Binding to alternate target sequence (13 unique dsDNA targets; yeast surface display, 1 μM dsDNA with avidity, alternate target H (DBP90), D (DBP48), C (DBP57)): strongly
DNA binding site specificity [1]: specificities consistent with the designed sidechain-base interactions
